Measurements published in patent US20130004519A1.

What was measured:
[1] = target: His-tagged human tenascin-C (human) (UniProt P24821); test: pull-down on tenascin-C-Sepharose 4B, multiple reaction monitoring
[2] = target: His-tagged human tenascin-C (human) (UniProt P24821); test: pull-down from HEK293 conditioned medium on tenascin-C-Sepharose 4B, nanoLC-MSMS
[3] = target: His-tagged human tenascin-C (human) (UniProt P24821); test: pull-down on tenascin-C-Sepharose 4B, spectral counting normalized to background proteins
[4] = target: horse fibronectin coupled to CNBr-activated Sepharose 4B (horse) (UniProt Q28377); test: pull-down from HEK293 conditioned medium on horse fibronectin-Sepharose 4B, nanoLC-MSMS
horse fibronectin coupled to CNBr-activated Sepharose 4B (horse), sequence (Q28377 32-2477 limits assumed): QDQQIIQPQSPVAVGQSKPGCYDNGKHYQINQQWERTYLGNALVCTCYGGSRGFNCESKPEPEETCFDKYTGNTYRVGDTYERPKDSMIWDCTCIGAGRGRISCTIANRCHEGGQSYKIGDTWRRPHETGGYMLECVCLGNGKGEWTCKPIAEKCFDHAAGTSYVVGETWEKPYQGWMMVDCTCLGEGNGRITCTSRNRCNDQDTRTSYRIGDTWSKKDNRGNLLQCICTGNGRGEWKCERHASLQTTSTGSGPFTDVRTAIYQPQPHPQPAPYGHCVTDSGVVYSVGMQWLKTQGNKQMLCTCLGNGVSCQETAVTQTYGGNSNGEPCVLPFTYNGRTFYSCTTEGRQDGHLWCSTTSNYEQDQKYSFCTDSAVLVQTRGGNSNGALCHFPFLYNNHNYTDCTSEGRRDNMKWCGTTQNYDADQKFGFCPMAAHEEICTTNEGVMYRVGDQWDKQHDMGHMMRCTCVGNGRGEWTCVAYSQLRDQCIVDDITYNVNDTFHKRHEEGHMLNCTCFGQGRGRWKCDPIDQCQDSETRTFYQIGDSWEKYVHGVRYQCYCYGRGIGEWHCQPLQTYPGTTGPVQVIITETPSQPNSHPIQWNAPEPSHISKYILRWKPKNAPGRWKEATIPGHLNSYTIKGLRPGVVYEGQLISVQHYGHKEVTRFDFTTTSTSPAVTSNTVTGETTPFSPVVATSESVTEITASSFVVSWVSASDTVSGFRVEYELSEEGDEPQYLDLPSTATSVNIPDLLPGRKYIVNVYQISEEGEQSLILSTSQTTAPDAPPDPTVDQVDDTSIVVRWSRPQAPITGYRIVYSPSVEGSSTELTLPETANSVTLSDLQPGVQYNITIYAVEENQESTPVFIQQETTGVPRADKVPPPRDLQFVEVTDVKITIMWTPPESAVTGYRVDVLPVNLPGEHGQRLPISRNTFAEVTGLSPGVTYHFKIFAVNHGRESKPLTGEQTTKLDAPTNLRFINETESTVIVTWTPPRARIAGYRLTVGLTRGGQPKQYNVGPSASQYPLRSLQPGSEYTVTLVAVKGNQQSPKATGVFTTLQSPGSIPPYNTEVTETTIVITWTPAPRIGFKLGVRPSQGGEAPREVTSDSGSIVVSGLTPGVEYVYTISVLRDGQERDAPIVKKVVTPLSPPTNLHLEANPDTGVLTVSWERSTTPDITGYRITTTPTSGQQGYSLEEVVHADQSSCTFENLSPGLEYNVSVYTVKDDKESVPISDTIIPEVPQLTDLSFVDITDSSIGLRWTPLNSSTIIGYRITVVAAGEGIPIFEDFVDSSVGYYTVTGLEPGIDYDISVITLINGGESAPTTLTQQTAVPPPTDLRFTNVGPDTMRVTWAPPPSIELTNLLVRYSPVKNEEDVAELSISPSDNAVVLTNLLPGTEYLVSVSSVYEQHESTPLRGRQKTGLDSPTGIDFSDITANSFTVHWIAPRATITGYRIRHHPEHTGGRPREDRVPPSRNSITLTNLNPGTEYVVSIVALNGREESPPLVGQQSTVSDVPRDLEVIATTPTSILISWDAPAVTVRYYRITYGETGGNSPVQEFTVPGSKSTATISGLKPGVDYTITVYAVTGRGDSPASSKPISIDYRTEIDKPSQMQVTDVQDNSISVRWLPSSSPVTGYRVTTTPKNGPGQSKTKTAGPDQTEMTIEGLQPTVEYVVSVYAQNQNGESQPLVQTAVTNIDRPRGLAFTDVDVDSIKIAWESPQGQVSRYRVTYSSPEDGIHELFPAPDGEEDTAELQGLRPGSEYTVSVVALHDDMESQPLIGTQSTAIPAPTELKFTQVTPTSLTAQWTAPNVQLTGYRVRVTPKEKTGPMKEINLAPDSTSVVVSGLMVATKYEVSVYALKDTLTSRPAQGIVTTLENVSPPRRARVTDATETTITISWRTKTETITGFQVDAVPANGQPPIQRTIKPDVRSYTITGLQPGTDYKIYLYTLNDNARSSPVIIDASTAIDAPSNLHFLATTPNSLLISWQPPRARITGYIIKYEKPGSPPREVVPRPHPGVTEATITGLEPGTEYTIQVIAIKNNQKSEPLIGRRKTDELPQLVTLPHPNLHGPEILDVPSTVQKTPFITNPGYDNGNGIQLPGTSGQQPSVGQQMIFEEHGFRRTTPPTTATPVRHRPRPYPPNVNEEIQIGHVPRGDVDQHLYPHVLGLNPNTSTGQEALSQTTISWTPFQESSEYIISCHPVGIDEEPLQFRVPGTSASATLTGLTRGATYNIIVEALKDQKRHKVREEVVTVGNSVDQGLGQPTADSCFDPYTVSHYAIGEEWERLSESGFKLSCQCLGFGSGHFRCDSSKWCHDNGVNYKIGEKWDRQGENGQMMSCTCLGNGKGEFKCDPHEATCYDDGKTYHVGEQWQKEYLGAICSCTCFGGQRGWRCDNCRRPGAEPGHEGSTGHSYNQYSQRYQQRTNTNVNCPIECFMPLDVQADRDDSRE

[5] = target: His-tagged human tenascin-C (human) (UniProt P24821); test: pull-down from HEK293 conditioned medium on tenascin-C-Sepharose 4B, nanoLC-MSMS; listed as background protein (control column count 44)
[6] = target: His-tagged human tenascin-C (human) (UniProt P24821); test: pull-down from HEK293 conditioned medium on tenascin-C-Sepharose 4B, nanoLC-MSMS; listed as background protein (control column score 720)
[7] = target: horse fibronectin coupled to CNBr-activated Sepharose 4B (horse) (UniProt Q28377); test: pull-down from HEK293 conditioned medium on horse fibronectin-Sepharose 4B, nanoLC-MSMS; listed as background protein (control column count 44)
[8] = target: horse fibronectin coupled to CNBr-activated Sepharose 4B (horse) (UniProt Q28377); test: pull-down from HEK293 conditioned medium on horse fibronectin-Sepharose 4B, nanoLC-MSMS; listed as background protein (control column score 720)
[9] = target: His-tagged human tenascin-C (human) (UniProt P24821); test: pull-down from HEK293 conditioned medium on tenascin-C-Sepharose 4B, nanoLC-MSMS; listed as background protein (control column count 32)
[10] = target: His-tagged human tenascin-C (human) (UniProt P24821); test: pull-down from HEK293 conditioned medium on tenascin-C-Sepharose 4B, nanoLC-MSMS; listed as background protein (control column score 833)
[11] = target: horse fibronectin coupled to CNBr-activated Sepharose 4B (horse) (UniProt Q28377); test: pull-down from HEK293 conditioned medium on horse fibronectin-Sepharose 4B, nanoLC-MSMS; listed as background protein (control column count 32)
[12] = target: horse fibronectin coupled to CNBr-activated Sepharose 4B (horse) (UniProt Q28377); test: pull-down from HEK293 conditioned medium on horse fibronectin-Sepharose 4B, nanoLC-MSMS; listed as background protein (control column score 833)

His-tagged human tenascin-C (human), sequence (P24821 23-2201): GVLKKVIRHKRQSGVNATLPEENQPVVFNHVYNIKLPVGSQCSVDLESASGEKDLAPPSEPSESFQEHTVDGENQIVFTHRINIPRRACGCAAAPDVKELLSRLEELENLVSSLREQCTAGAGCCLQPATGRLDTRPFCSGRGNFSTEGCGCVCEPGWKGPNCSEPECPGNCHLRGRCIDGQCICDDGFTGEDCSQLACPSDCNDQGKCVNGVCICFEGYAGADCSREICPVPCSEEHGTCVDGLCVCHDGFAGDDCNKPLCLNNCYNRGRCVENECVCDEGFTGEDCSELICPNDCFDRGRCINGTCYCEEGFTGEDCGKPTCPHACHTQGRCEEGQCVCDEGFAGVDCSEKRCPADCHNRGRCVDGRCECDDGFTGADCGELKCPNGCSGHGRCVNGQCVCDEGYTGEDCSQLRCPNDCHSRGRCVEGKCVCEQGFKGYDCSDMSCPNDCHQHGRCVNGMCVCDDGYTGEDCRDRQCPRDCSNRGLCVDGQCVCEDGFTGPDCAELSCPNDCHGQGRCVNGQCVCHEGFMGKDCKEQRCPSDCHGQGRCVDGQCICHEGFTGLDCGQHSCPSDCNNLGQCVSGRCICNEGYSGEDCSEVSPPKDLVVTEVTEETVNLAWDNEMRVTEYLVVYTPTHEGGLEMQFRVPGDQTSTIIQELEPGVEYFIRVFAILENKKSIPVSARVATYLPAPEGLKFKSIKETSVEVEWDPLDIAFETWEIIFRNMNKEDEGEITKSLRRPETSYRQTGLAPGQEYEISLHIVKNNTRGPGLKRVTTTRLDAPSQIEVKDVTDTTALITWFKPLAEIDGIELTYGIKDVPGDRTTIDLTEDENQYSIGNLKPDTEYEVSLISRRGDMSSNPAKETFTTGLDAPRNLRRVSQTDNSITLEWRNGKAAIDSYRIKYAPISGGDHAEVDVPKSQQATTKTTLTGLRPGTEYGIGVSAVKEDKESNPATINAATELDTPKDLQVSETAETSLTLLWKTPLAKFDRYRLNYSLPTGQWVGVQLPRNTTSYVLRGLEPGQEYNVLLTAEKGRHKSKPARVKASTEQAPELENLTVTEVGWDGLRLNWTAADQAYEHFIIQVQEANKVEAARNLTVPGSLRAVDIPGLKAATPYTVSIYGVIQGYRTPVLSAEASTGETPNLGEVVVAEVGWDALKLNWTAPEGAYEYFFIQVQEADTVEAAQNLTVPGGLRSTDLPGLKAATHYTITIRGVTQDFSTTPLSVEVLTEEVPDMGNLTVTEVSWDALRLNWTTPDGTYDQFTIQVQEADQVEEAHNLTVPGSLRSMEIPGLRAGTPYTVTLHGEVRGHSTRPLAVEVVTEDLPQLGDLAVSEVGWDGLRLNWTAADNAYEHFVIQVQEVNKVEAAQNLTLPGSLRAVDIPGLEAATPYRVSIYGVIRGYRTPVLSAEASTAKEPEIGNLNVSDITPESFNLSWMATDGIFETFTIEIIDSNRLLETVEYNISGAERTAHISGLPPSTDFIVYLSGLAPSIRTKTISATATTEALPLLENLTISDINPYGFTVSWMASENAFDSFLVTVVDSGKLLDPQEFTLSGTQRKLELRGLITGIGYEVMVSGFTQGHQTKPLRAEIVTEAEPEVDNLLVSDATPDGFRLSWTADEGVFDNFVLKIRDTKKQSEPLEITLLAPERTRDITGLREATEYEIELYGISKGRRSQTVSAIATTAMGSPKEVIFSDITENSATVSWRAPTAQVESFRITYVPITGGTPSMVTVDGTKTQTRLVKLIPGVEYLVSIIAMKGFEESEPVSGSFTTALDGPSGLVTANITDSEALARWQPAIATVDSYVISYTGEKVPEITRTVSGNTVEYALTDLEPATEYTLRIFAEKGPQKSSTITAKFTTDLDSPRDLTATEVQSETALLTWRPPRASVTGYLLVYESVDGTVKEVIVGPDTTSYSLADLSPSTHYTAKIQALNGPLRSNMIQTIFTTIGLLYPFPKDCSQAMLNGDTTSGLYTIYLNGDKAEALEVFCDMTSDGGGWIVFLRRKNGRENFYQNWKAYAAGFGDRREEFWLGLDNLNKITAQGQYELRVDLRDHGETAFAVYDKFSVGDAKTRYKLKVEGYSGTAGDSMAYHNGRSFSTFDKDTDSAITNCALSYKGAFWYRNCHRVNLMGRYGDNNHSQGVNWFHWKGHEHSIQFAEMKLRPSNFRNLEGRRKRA

| normalized enrichment (MRM), tenascin-C against control [1] [fold] | MASCOT Score (tenascin-C) [2] | spectrum count (tenascin-C) [2] | normalized enrichment (spectrum count), tenascin-C against control [3] [fold] | Substance | further results |
| --- | --- | --- | --- | --- | --- |
| 2.1 | 258 | 11 | 4.2 | Clusterin (from UniProt P10909 23-449) | – |
| – | – | – | – | Fibronectin from HEK293 conditioned medium (from UniProt P02751 32-2477) | MASCOT Score (fibronectin) [4]: 2210; spectrum count (fibronectin) [4]: 135 |
| 4.8 | 544 | 25 | 19.2 | Fibronectin from HEK293 conditioned medium, P02751 32-2477 | – |
| 2.2 | 437 | 15 | 5.8 | Nidogen-2 (from UniProt Q14112 31-1375) | – |
| – | – | – | – | Peptidyl-prolyl cis-trans isomerase A (PPIA) from HEK293 conditioned medium (from UniProt P62937 2-165) (enzyme) | spectrum count (tenascin-C) [5]: 56; MASCOT Score (tenascin-C) [6]: 675; spectrum count (fibronectin) [7]: 36; MASCOT Score (fibronectin) [8]: 676 |
| 1.2 | 402 | 26 | 3.3 | Phosphoglycerate kinase 1 (from UniProt P00558 2-417) (enzyme) | – |
| – | – | – | – | alpha-enolase (ENOA) from HEK293 conditioned medium (from UniProt P06733 2-434) (enzyme) | spectrum count (tenascin-C) [9]: 42; MASCOT Score (tenascin-C) [10]: 1040; spectrum count (fibronectin) [11]: 26; MASCOT Score (fibronectin) [12]: 701 |
